The source of these data is publication PMC8298488, “Structure of the molecular bushing of the bacterial flagellar motor” (Nature Communications, 2021).

The stoichiometry N is the number of molecules, sites or subunits per partner or assembly.

First the molecules themselves.
B1: FlgI (natural protein, UniProt P15930 20-365, looked up)
chain: ERIRDLTSVQGVRENSLIGYGLVVGLDGTGDQTTQTPFTTQTLNNMLSQLGITVPTGTNMQLKNVAAVMVTASYPPFARQGQTIDVVVSSMGNAKSLRGGTLLMTPLKGVDSQVYALAQGNILVGGAGASAGGSSVQVNQLNGGRITNGAIIERELPTQFGAGNTINLQLNDEDFTMAQQITDAINRARGYGSATALDARTVQVRVPSGNSSQVRFLADIQNMEVNVTPQDAKVVINSRTGSVVMNREVTLDSCAVAQGNLSVTVNRQLNVNQPNTPFGGGQTVVTPQTQIDLRQSGGSLQSVRSSANLNSVVRALNALGATPMDLMSILQSMQSAGCLRAKLEII
notes: FlgI, the periplasmic protein that forms the P ring, Salmonella enterica serovar Typhimurium; made as a precursor with a cleavable N-terminal signal peptide; 26 subunits form the P ring (C26 symmetry); Domains: FlgI-OR (1-11 and 160-230), FlgI-IRU (12-159), FlgI-IRL (231-346); also called P ring protein; I0; source: endogenous, Salmonella HK1002 cells; in the hook-basal body (HBB) purified by …
B2: FlgH (natural protein, UniProt P0A1N8 22-232, looked up)
chain: CAWIPAKPLVQGATTAQPIPGPVPVANGSIFQSAQPINYGYQPLFEDRRPRNIGDTLTIVLQENVSASKSSSANASRDGKTSFGFDTVPRYLQGLFGNSRADMEASGGNSFNGKGGANASNTFSGTLTVTVDQVLANGNLHVVGEKQIAINQGTEFIRFSGVVNPRTISGSNSVPSTQVADARIEYVGNGYINEAQNMGWLQRFFLNLSPM
notes: FlgH, the lipoprotein that forms the L ring, Salmonella enterica serovar Typhimurium; made as a precursor with a cleavable N-terminal signal peptide; the atomic model holds the whole 211 residues of FlgH; 26 subunits form the L ring (C26 symmetry); also called L ring protein; H0; source: endogenous, Salmonella HK1002 cells; in the hook-basal body (HBB) purified by sucrose density-gradient …

Data set [1] deals with the molecule itself. The experiment in a line: cryo-EM structure; LP ring part of hook-basal body (HBB) particle images, C26 symmetry applied, 3.5 Å; HBB purified from Salmonella HK1002; final buffer 20 mM Tris-HCl pH 8.0, 150 mM NaCl, 0.05% Triton X-100.
The data set “FlgI” deals with B1. The data set is described as above. As to conditions: both partners purified.

Take B1: in data set [1], the “stoichiometry N” value worked out at 26.

For the molecule B2, in the data set with FlgI, the binding result is given as “binds”. Besides, the “stoichiometry N” value in data set [1] came out at 26.
